According to US20060280804A1 (CONSEJO SUPERIOR DE INVESTIGACIONES CIENTIFCAS, published 2006):

biological target: T1, angiotensin converting enzyme (ACE, EC 3.4.15.1, Sigma); test: cell-based or functional assay
T1 sequence (P12822 whole entry, species assumed, looked up): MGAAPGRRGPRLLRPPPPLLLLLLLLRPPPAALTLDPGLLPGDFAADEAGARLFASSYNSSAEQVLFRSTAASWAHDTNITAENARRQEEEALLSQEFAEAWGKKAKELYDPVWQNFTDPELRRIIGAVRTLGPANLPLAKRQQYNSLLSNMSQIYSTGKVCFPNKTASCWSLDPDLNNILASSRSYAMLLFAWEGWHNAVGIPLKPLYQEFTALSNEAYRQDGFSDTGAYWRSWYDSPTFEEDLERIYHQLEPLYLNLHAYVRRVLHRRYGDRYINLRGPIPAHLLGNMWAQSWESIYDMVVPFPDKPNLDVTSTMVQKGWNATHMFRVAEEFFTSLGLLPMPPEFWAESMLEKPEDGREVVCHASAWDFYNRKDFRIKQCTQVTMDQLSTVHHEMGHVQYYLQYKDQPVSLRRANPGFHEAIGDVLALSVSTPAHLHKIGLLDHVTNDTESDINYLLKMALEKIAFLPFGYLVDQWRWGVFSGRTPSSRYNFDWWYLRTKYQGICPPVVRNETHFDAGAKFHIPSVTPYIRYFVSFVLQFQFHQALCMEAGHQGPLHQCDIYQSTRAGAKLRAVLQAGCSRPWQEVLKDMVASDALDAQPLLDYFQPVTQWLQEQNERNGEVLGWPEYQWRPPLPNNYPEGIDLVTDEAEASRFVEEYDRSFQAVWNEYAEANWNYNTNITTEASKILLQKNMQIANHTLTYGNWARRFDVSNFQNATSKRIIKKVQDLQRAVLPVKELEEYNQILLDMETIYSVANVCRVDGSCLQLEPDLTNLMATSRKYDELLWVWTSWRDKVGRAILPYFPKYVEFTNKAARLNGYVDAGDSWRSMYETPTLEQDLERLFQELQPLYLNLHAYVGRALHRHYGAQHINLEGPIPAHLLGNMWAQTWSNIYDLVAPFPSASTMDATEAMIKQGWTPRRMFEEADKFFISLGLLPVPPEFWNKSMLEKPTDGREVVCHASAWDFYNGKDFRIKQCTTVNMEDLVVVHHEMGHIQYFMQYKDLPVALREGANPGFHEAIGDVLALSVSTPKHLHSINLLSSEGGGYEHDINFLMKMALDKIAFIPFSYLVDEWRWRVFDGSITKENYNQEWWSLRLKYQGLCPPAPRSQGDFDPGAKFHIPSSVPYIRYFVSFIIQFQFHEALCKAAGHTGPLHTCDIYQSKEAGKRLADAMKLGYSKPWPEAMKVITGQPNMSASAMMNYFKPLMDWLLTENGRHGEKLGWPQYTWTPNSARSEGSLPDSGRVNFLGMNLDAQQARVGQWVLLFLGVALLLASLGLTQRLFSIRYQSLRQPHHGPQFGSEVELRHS

Row | Binder | ACEI activity, IC50 [µM]
1 | ESIINF [ESIINF, synthetic peptide, ovalbumin 256-261] | > 1000
2 | YRGGLEPINF [YRGGLEPINF, synthetic peptide, ovalbumin 125-134] | > 1000
3 | RDILNQ [RDILNQ (SEQ. ID. No 7), synthetic peptide, ovalbumin 84-89] | 436
4 | YAEERYPIL [YAEERYPIL (SEQ. ID. No 6), synthetic peptide, ovalbumin 106-114] | 4.7
5 | ELIN [ELIN, synthetic peptide, ovalbumin 144-147] | > 1000
6 | RADHPFL [RADHPFL (SEQ. ID. No 3), synthetic peptide, ovalbumin 359-365] | 6.2
7 | YQIGL [YQIGL (SEQ. ID. No 1), synthetic peptide, ovalbumin 212-216] | 174
8 | SALAM [SALAM (SEQ. ID. No 8), synthetic peptide, ovalbumin 36-40] | 229
9 | VLLPDEVSGL [VLLPDEVSGL, synthetic peptide, ovalbumin 243-252] | > 1000
